Patent publication US20240391987A1 (ALAMAB THERAPEUTICS, published 2024)

How the values were obtained:
[1] = target: T1, Cx43 hemichannels of mouse osteocytes (MLO-Y4 cells) (mouse, UniProt P23242 2-382); assay: cell-based or functional assay
[2] = target: T2, Cx43 hemichannels of primary human osteocytes (human, UniProt P17302 2-382); assay: cell-based or functional assay
[3] = target: T2, Cx43 hemichannels of primary human …; assay: cell ELISA on primary human osteocytes
[4] = target: T1, Cx43 hemichannels of mouse osteocytes …; assay: cell ELISA on mouse osteocytes (MOL-Y4)

T1 sequence (P23242 2-382): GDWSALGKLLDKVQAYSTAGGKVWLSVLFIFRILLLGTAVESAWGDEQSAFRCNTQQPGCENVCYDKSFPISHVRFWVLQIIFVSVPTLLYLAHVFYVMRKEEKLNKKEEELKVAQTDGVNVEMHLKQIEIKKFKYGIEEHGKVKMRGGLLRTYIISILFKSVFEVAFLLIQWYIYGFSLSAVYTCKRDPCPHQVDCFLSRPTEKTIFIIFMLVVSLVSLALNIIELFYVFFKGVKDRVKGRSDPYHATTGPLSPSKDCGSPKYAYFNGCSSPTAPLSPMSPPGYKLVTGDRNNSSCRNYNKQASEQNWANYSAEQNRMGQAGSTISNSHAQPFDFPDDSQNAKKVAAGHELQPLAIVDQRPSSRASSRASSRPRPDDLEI
T2 sequence (P17302 2-382): as the sequence (P23242 2-382) above, with E123D, V163I, R242K, T250S, P252A, S256A, P262Q, S340N, A343S, V346L counted along it

- EC50 of Cx43 hemichannel opening, EB staining, MOL-Y4 cells [1]: 2.33 µg/mL
- plasma ATP level in mice, luciferin/luciferase assay, against saline-treated mice [1]: > 5 fold
- EC50 of Cx43 hemichannel opening, EB staining, human osteocytes [2]: 3.97 µg/mL
- EC50 [3]: 41 µg/mL
- EC50 [4]: 37.3 µg/mL
B1: ALMB-0168 (antibody, V domains shown)
VH: EVQLVQSGAEVKKPGASVKVSCKASGYTFTSYYMYWVRQAPGQGLEWIGGINPSNAGTNFNEKFKNRATLTVDKSTSTAYMELSSLRSEDTAVYYCTREGNPYYTMNYWGQGTLVTVSS
VL: DVVMTQSPLSLPVTIGQPASISCKSSQSLLESDGKTYLNWLQQRPGQSPRRLIYLVSKLDSGVPDRFSGSGSGTDFTLKISRVEAEDVGVYYCWQGTHFPWTFGGGTKVEIKR
notes: also called anti-Cx43 antibody
